The text below walks through data of PMC6098011, “Insights into degradation mechanism of N-end rule substrates by p62/SQSTM1 autophagy adapter” (Nature Communications, 2018).

Data set [1] addresses T1, R-BiP peptide (REEEDK–FITC).
T1 construct: Arg attached to the new N-terminus of cleaved BiP (N-terminal arginylation, R*); BiP/GRP78 from E19 (E19b-E20b-E21b-D22b printed); also called FITC-labeled R-BiP peptide; FITC-labeled R-BiP/GRP78 peptide
T1 peptide: REEEDK-{FITC′}
Put plainly: fluorescence polarisation; FITC-labeled peptide 100 nM, p62 construct titrated 400 nM to 3 mM; 50 mM Tris pH 8.0, 100 mM NaCl, 1 mM DTT; 384-well. Particulars: both partners purified.

Data set [2] deals with the molecule itself. Put plainly: SEC-MALS; 50 mM Tris pH 8.0, 100 mM NaCl, 1 mM TCEP; 1-3 mg/ml injected; Superdex 200 Increase or Superose 6 Increase. (SEC sorts molecules by how far they enter the pores of the column.)
Data set [3] concerns the molecule itself. Kind of data set: SEC-MALS; 50 mM sodium acetate pH 4.5, 100 mM NaCl, 1 mM TCEP.
Data set [4] concerns the molecule itself. Kind of data set: SEC-MALS; physiological pH 7.4; buffer not stated.

Where a chain is given by its changes, count along the chain named. Primed or numbered codes have the meaning given here. No end group written: not given here. FITC′ = fluorescein isothiocyanate label

B1: Flag-ZZ (ZZ-domain of p62 with the flag-tag) (domain or fragment)
chain: not shown
For the molecule B1, the dissociation constant Kd in data set [1] is over 800 µM.

B2: MBP-fused PB1-ZZ of p62 (residues 1-181) wild type (domain or fragment)
chain: not shown
notes: p62/SQSTM1, human, PB1-ZZ residues 1-181; Oligomeric state depends on pH (hexameric or higher at pH 8.0, polymer at pH 6.0, about a trimer at pH 4.5); also called MBP-PB1-ZZ WT; PB1-ZZ WT
For B2, the “stoichiometry N” value was at least 6 in data set [2], about 3 in data set [3] and at least 10 in data set [4].

B3: MBP-PB1-ZZ D129N (domain or fragment, human, UniProt Q13501 1-181, looked up)
chain: MASLTVKAYLLGKEDAAREIRRFSFCCSPEPEAEAEAAAGPGPCERLLSRVAALFPALRPGGFQAHYRDEDGDLVAFSSDEELTMAMSYVKDDIFRIYIKEKKECRRDHRPPCAQEAPRNMVHPNVICNGCNGPVVGTRYKCSVCPDYDLCSVCEGKGLHRGHTKLAFPSPFGHLSEGFSH
notes: p62/SQSTM1, human, PB1-ZZ residues 1-181
For the molecule B3, the “fold reduction of affinity against WT” value in data set [1] was about 30 fold.

B4: MBP-PB1-ZZ D147R (domain or fragment, human, UniProt Q13501 1-181, looked up)
chain: B3 chain with N129D, D147R
notes: as for B3
B4: the “fold reduction of affinity against WT” value in data set [1] is about 30 fold.

B5: MBP-PB1-ZZ N132L (domain or fragment)
chain: not shown
notes: as for B3
Consider B5, for which the “fold reduction of affinity against WT” value in data set [1] is about 30 fold.

B6: MBP-PB1-ZZ D69A (domain or fragment)
chain: not shown
notes: p62/SQSTM1, human, PB1-ZZ residues 1-181; also called monomeric PB1-ZZ mutant
Turning to B6, in data set [1], the “fold higher affinity of PB1-ZZ WT than of this mutant” value was over 10 fold.

B7: MBP-PB1-ZZ D149R (domain or fragment, human, UniProt Q13501 1-181, looked up)
chain: B3 chain with N129D, D149R
notes: as for B3
As to B7, in data set [1], the “fold reduction of affinity against WT” value is about 30 fold.

B8: MBP-PB1-ZZ K7A (domain or fragment)
chain: not shown
notes: as for B6
With B8, in data set [1], the “fold higher affinity of PB1-ZZ WT than of this mutant” value is over 10 fold.

In general, Kd refers to the constant that tells how readily two partners part at equilibrium. High values mean weaker binding, low ones tighter binding. By stoichiometry N is commonly meant a count of units in the complex or per binding partner.
